Values quoted from earlier work in patent publication US10463717B2, “Compositions in the form of an injectable aqueous solution comprising amylin, an amylin receptor agonist or an amylin analog, and a co-polyamino acid” (ADOCIA, priority 2016, dated 2019).
Like-named read-outs stand apart in the source and are kept apart here. No end group written: not given here.

Compound: CC[C@H](C)[C@H](NC(=O)[C@@H]1CCCN1C(=O)CNC(=O)[C@H](Cc1ccccc1)NC(=O)[C@H](CC(N)=O)NC(=O)[C@H](CC(N)=O)NC(=O)[C@H](CO)NC(=O)[C@H](CO)NC(=O)[C@H](Cc1c[nH]cn1)NC(=O)[C@@H](NC(=O)[C@H](CC(C)C)NC(=O)[C@H](Cc1ccccc1)NC(=O)[C@H](CC(N)=O)NC(=O)[C@H](C)NC(=O)[C@H](CC(C)C)NC(=O)[C@H](CCCNC(=N)N)NC(=O)[C@H](CCC(N)=O)NC(=O)[C@@H](NC(=O)[C@H](C)NC(=O)[C@@H]1CSSC[C@H](NC(=O)[C@@H](N)CCCCN)C(=O)N[C@@H](CC(N)=O)C(=O)N[C@@H]([C@@H](C)O)C(=O)N[C@@H](C)C(=O)N[C@@H]([C@@H](C)O)C(=O)N1)[C@@H](C)O)C(C)C)C(=O)N[C@@H](CC(C)C)C(=O)N1CCC[C@H]1C(=O)N1CCC[C@H]1C(=O)N[C@H](C(=O)N[C@@H](CC(N)=O)C(=O)N[C@H](C(=O)NCC(=O)N[C@@H](CO)C(=O)N[C@@H](CC(N)=O)C(=O)N[C@H](C(=O)N[C@@H](Cc1ccc(O)cc1)C(N)=O)[C@@H](C)O)C(C)C)[C@@H](C)O [pramlintide, reference compound]
- pH of the solution above which fibrils form (described for the marketed peptide): higher than 5.5

Compound: amylin: 37 aminoacids peptide which is co-stored and co-secreted with insulin (KCNTATCATQRLANFLVHSSNNFGAILSSTNVGSNTY; not fully specified (C-terminus, bridges); cysteine pairing not given here; UniProt P10997 34-70, looked up)
- Stability of amylin in solution (acidic pH): about fifteen minutes
- Stability of amylin in solution (neutral pH): less than a minute
